Our source for the response values is paper PMC8424379 (2021).

For the experiment, the target named is Raf2 fused to Gal4 DNA-binding domain (UniProt O74560). Description: yeast two-hybrid (β-galactosidase). Conditions: Ccq1 fused to Gal4 activation domain, read off a plot.
Chain of Raf2 fused to Gal4 DNA-binding domain (O74560 whole entry, the tested form may be a part): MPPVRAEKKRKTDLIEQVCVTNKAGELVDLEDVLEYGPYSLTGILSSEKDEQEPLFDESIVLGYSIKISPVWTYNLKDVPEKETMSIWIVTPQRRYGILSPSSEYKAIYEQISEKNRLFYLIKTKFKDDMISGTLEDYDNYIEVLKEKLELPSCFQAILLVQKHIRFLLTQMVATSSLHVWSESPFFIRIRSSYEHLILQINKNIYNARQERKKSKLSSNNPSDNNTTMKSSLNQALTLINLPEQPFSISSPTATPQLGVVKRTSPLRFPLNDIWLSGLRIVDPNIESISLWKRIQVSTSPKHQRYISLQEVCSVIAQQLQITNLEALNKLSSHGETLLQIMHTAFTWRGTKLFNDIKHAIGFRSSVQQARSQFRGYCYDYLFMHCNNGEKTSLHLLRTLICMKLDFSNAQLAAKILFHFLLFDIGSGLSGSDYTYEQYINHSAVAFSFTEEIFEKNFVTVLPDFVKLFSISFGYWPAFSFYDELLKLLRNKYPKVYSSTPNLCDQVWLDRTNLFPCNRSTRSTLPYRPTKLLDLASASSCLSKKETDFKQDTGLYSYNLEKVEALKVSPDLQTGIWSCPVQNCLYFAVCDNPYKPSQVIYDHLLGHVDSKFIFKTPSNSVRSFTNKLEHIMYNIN

Chain of Ccq1_(496–583), Raf2-binding motif of Ccq1, fused to Gal4 activation domain (Q10432 496-583, stated change not applied): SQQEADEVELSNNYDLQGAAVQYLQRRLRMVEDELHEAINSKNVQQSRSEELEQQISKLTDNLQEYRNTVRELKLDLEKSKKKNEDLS

As to “Ccq1_(496–583), Raf2-binding motif of Ccq1, fused to Gal4 activation domain (from UniProt Q10432) V570R”, the response was determined as 80.
